# Experimental data taken from US20180187185.
# Experiments:
# Assay in all cases: cell_activity
# [1] = system: AAVS1 TALE-Clo051 (Clo051-XTN) (Xanthomonas TALE); details: average of replicates; locus inferred AAVS1; sequencing gave 9.3% indels (FIG. 11)
# [2] = system: AAVS1 TALE-FokI (FokI-XTN) (Xanthomonas TALE); details: average of replicates; locus inferred AAVS1; sequencing gave 6.5% indels (FIG. 12)
# [3] = system: Bmpr2 REV RTN (Ralstonia TALE 16 EBEs in Xanthomonas TAL backbone-FokI) (Ralstonia (TALE repeats); Xanthomonas backbone); details: RTN pair p1+p2, Rat C6, Surveyor 250 bp band; 5.43% by 150 bp band; printed SEQ 150 differs from SEQ 148 complement at position 5
# [4] = system: Bmpr2 FWD RTN (Ralstonia TALE 16 EBEs in Xanthomonas TAL backbone-FokI) (Ralstonia (TALE repeats); Xanthomonas backbone); details: RTN pair p1+p2, Rat C6, Surveyor 250 bp band; 5.43% by 150 bp band
# [5] = system: Bmpr2 XTN (Xanthomonas TALEN-FokI pair) (Xanthomonas); details: TALEN pair, Rat C6, Surveyor 250 bp band; 3.66% by 150 bp band; XTN RVDs and half-sites not stated
substance,measurement,setting,value
AAVS1 target locus,activity,[1],8.1 % cutting
same,activity,[2],7.1 % cutting
TGACAGGTAAACGAAATA (double strand) [Bmpr2 reverse half-site (complement of the printed strand)],activity,[3],1.82 % cutting
TTGATAGTCGCCTTATGT (double strand) [Bmpr2 forward half-site],activity,[4],1.82 % cutting
TTGATAGTCGCCTTATGTTTTGGATACAGAATGTTGACAGGTAAACGAAATA (double strand) [Bmpr2 full TALEN target site],activity,[5],5.75 % cutting
